One may read the Kd as the free concentration of one partner at which half of the binding sites on the other are occupied at equilibrium, for simple one-to-one binding. Usually koff stands for the rate constant with which the complex falls apart. Usually kon stands for the second-order rate constant of association. The term EC50 denotes the midpoint of the concentration-response curve. The low end stands for greater potency, the high end for weaker potency.

The target of assay [1] is recombinant human B7H3 extra cellular domain (ECD) protein (human) (UniProt Q5ZPR3). Kind of assay: Octet binding assay.
For assay [2], the target named is human B7H3 on A498 cells (human) (UniProt Q5ZPR3). As to the kind of experiment: flow cytometry, whole cell binding to B7H3+ A498 cells, MFI.
The target is the same in assay [3]. Described as above. This is another data set of the same source.
The target is the same in assay [4]. As to the kind of experiment: flow cytometry, whole cell binding to B7H3+ A498 cells, MFI (FITC).

recombinant human B7H3 extra cellular domain (ECD) protein (human), sequence (Q5ZPR3 29-461): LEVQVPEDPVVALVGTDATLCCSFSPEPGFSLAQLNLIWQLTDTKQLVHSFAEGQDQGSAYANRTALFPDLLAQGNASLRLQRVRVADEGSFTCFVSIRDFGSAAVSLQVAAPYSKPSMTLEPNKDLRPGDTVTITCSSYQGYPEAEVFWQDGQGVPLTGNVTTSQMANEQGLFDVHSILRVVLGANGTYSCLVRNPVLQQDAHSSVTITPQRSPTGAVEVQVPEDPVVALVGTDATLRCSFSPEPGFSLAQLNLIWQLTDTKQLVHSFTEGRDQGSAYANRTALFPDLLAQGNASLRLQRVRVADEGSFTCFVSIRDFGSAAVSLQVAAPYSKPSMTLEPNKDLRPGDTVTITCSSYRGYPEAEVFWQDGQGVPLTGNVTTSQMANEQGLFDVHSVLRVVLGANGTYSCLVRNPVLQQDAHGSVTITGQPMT
human B7H3 on A498 cells (human), sequence (Q5ZPR3 29-534 limits assumed): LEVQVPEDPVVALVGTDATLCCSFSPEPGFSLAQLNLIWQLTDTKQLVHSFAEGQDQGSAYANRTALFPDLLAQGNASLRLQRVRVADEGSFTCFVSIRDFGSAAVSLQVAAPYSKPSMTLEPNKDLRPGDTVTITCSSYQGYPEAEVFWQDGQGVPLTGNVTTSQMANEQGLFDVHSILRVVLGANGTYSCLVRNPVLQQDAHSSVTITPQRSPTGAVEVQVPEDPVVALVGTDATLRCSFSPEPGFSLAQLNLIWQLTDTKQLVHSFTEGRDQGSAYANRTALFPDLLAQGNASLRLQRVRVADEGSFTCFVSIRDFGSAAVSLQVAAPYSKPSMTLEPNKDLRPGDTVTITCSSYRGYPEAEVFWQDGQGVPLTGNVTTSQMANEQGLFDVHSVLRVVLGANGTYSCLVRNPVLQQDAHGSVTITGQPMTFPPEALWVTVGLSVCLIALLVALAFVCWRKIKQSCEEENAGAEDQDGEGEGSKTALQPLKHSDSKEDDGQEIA

Turning to “Reference Ab 1 (an enoblituzumab analog) (antibody)”, in assay [1], the dissociation constant (Kd) amounted to 0.739 nM, the dissociation rate constant (koff) was determined as 0.000199 s⁻¹ and the on-rate constant (kon) is 269000 M⁻¹ s⁻¹. Also, the concentration giving a half-maximal response (EC50) in assay [2] stood at 7.94 nM. For the same substance, the EC50 in assay [3] came to 2.18 nM. The substance also registered a concentration giving a half-maximal response (EC50) in assay [4] of 0.697 nM.

(Values after patent US20250243278A1.)
